The test deals with CD16 (FcγRIIIa/CD16a), high affinity variant with valine at amino acid 176, expressed on haNK003 cells (human) (UniProt P08637). Description: cell-based or functional assay.
Sequence of UniProt P08637 (P08637 other isoform, or with tags, fused parts or gaps mutant limits assumed): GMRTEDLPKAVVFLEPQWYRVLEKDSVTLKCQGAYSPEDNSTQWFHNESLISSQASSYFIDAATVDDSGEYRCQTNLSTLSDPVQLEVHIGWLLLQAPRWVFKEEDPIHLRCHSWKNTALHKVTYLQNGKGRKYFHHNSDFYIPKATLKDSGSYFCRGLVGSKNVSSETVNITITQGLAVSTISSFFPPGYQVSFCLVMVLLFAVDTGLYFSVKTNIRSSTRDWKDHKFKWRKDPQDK

Regarding Rituximab (antibody), the ADCC assay (specific lysis), haNK003 at 1:1 E:T Ratio with Rituxan (3.3 µg/mL) vs DOHH2 amounted to 52.8%.

These data come from patent publication US20260078342A1.
